Experimental data: PMC7933130 (Nature, 2021)

Biological target: the molecule itself
Assay: SEC-MALS

B1: human Na+-dependent citrate transporter NaCT (SLC13A5), wildtype (natural protein)
chain: not shown
modifications: one glycan unit connected to Asn562 (N-glycosylation site)
B1 was tested, and the “stoichiometry N” value was 2.
